The source of these data is US20180171001A1.

Common to all, as to test: cell-based or functional assay
Assay [1] concerns the target Tier 2 15 virus panel.
Assay [2] has as its target Env of HIV-1 strain ZM53M.PB12 (HIV-1).
Assay [3] deals with Env of HIV-1 strain 251-18 (HIV-1).
The target in assay [4] is Env of HIV-1 strain ZM109F.PB4 (HIV-1).
Assay [5] concerns the target Env of HIV-1 strain 3016.v5.c45 (HIV-1).
The target in assay [6] is Env of HIV-1 strain REJO4541.67 (HIV-1).
In assay [7] the target is Env of HIV-1 strain 250-4 (HIV-1).
Assay [8] concerns the target Env of HIV-1 strain 3365.v2.c20 (HIV-1).
For assay [9], the target named is Env of HIV-1 strain YU2.DG (HIV-1).
The target in assay [10] is Env of HIV-1 strain 3415.v1.c1 (HIV-1).
Assay [11] concerns the target Env of HIV-1 strain 231965.c1 (HIV-1).
Assay [12] deals with Env of HIV-1 strain PVO.4 (HIV-1).
The target in assay [13] is Env of HIV-1 strain X1254_c3 (HIV-1).
The target of assay [14] is Env of HIV-1 strain R1166.c1 (HIV-1).
Assay [15] concerns the target Env of HIV-1 strain H086.8 (HIV-1).
Assay [16] deals with Env of MuLV.
Assay [17] addresses Env of HIV-1 strain Du172.17 (HIV-1).

B1: γ52κ5 (antibody, V domains shown)
VH: QIHLVQSGTEVKKPGSSVTVSCKAYGVNTFGLYAVNWVRQAPGQSLEYIGQIWRWKSSASHHFRGRVLISAVDLTGSSPPISSLEIKNLTSDDTAVYFCTTTSTYDRWSGLHHDGVMAFSSWGQGTLISVSA
VL: DIQMTQSPSTLSASTGDTVRISCRASQSITGNWVAWYQQRPGKAPRLLIYRGAALLGGVPSRFRGSAAGTDFTLTIGNLQAEDFGTFYCQQYDTYPGTFGQGTKVEVKR
The molecule B1 returned a mean neutralization IC50 in assay [1] of 0.45 µg/mL. The potency against 8ANC195 in [1] was determined as 5 fold. Moreover, the neutralization IC50 in assay [2] is 3.13 µg/mL; in [3], 0.048 µg/mL; in assay [4] it was above 15 µg/mL; in [5], 0.017 µg/mL; in assay [6], 0.035 µg/mL; in assay [7], above 15 µg/mL. Also, the neutralization IC50 in assay [8] is above 15 µg/mL; in assay [9] it was 0.065 µg/mL; in assay [10], 0.12 µg/mL; in assay [11] it was 0.094 µg/mL; in [12], 0.019 µg/mL; in assay [13] it was 0.504 µg/mL. Further, the neutralization IC50 came to 0.319 µg/mL in assay [14] and 0.175 µg/mL in assay [15].

B2: γ20κ19 (antibody, V domains shown)
VH: QIHLVQSGTEVKKPGSSVAVSCKAYGVNTFGLYAVNWVRQAPGQSLEYIGQIWRWKSSASHDFRGRVIISAVDLTGSSPPISSLEIKNLTSDDTAVYFCTATSTPDYWSGLHHDGVMAFSSWGQGTLISVSA
VL: DIQMTQSPSTLSASVGDTVRISCRASQSITGGWLAWYHQRPGKAPRLLIYRGSRLLGGVPSRFSGSAAGTGFTLTIANLQAEDFGTFYCQQYDTYPGTFGQGTKVEVKR
With B2, the neutralization IC50 in assay [2], in assay [3], in [4], in assay [16], in [5] and in assay [6] was above 15 µg/mL in each case. Moreover, the neutralization IC50 in assay [7], in assay [8], in [9], in assay [10], in [17] and in [11] was above 15 µg/mL each time. Further, the neutralization IC50 in assay [12] is above 15 µg/mL; in [13], 2.99 µg/mL; in [14] it was above 15 µg/mL; in assay [15], above 15 µg/mL.

B3: γ59κ61 (antibody, V domains shown)
VH: QIHLVQSGTEVKKPGSSVTVSCKAYGVNTFGLYAVNWVRQAPGQGLEYIGQIWRWKSSASHHFRGRVLISAVDLTGSSPPISSLEIKNVTSDDTAVYFCTTTSTYDEWSDLHHDGVMAFSSWGQGTLISVSA
VL: DIQMTQSPSTLSASIGDTVRISCRASQSITGNWVAWYHQRPGKAPRLLIYRGAALLGGVPSRFSGSAAGTDFTLTIGNLQAEDFGTFYCQQYDTYPGTFGQGTKVEVKR
With B3, the neutralization IC50 in assay [2] is 13.3 µg/mL; in assay [3], 1.4 µg/mL; in [4], above 15 µg/mL; in assay [16], above 15 µg/mL; in assay [5], above 15 µg/mL; in assay [6] it was 1.33 µg/mL. Moreover, the neutralization IC50 in [7] is above 15 µg/mL; in [8], above 15 µg/mL; in [9], 4.33 µg/mL; in assay [10], above 15 µg/mL; in [17] it was above 15 µg/mL; in assay [11], above 15 µg/mL. The neutralization IC50 in assay [12] is above 15 µg/mL; in assay [13], 4.01 µg/mL; in [14], 7.46 µg/mL; in assay [15], above 15 µg/mL.

B4: γ52κ61 (antibody, V domains shown)
VH: QIHLVQSGTEVKKPGSSVTVSCKAYGVNTFGLYAVNWVRQAPGQSLEYIGQIWRWKSSASHHFRGRVLISAVDLTGSSPPISSLEIKNLTSDDTAVYFCTTTSTYDRWSGLHHDGVMAFSSWGQGTLISVSA
VL: DIQMTQSPSTLSASIGDTVRISCRASQSITGNWVAWYHQRPGKAPRLLIYRGAALLGGVPSRFSGSAAGTDFTLTIGNLQAEDFGTFYCQQYDTYPGTFGQGTKVEVKR
In the case of B4, the neutralization IC50 in assay [2] was 8.44 µg/mL; in assay [3] it was 0.273 µg/mL; in [4], above 15 µg/mL; in assay [16] it was above 15 µg/mL; in assay [5] it was 0.182 µg/mL; in assay [6] it was 0.115 µg/mL. Besides, the neutralization IC50 is above 15 µg/mL in assay [7]; above 15 µg/mL in assay [8]; 0.408 µg/mL in [9]; 0.681 µg/mL in assay [10]; 7.28 µg/mL in [17]; 0.516 µg/mL in [11]. The neutralization IC50 in assay [12] came to 0.078 µg/mL; in assay [13] it was 2.57 µg/mL; in assay [14], 1.64 µg/mL; in [15] it was 0.242 µg/mL.

B5: γ46κ61 (antibody, V domains shown)
VH: QIHLVQSGTEVKKPGSSVTVSCKAYGVNTFGLYAVNWVRQAPGQGLEYIGQIWRWKSSASHHFRGRVLISAVDLTGSSPPISSLEIKNVTSDDTAVYFCTTTSTYDKWSGLHHDGVVAFSSWGQGTLISVSA
VL: DIQMTQSPSTLSASIGDTVRISCRASQSITGNWVAWYHQRPGKAPRLLIYRGAALLGGVPSRFSGSAAGTDFTLTIGNLQAEDFGTFYCQQYDTYPGTFGQGTKVEVKR
For B5, the neutralization IC50 in assay [2] is 27.5 µg/mL; in assay [3], 1.84 µg/mL; in assay [4], above 15 µg/mL; in assay [16], above 15 µg/mL; in assay [5] it was 0.383 µg/mL; in assay [6], 0.378 µg/mL. The neutralization IC50 is above 15 µg/mL in assay [7]; above 15 µg/mL in assay [8]; 0.918 µg/mL in assay [9]; above 15 µg/mL in [10]; 26.1 µg/mL in assay [17]; 1.58 µg/mL in assay [11]. Besides, the neutralization IC50 came out at 0.244 µg/mL in assay [12], 4.46 µg/mL in [13], 2.58 µg/mL in assay [14] and 0.584 µg/mL in [15].

B6: γ15κ61 (antibody, V domains shown)
VH: QIHLVQSGTEVKKPGSSVTVSCKAYGVNTFGLYAVNWVRQAPGQSLEYIGQIWRWKSSASHHFRGRVIISAVDLTGSSPPISSLEIKNLTSDDTAVYFCTTASTYDKWSGLHHDGVMAFSSWGQGTLISVSA
VL: DIQMTQSPSTLSASIGDTVRISCRASQSITGNWVAWYHQRPGKAPRLLIYRGAALLGGVPSRFSGSAAGTDFTLTIGNLQAEDFGTFYCQQYDTYPGTFGQGTKVEVKR
As for B6, the neutralization IC50 is above 15 µg/mL in assay [2]; 4.66 µg/mL in assay [3]; above 15 µg/mL in assay [4]; above 15 µg/mL in assay [16]; 1.21 µg/mL in assay [5]; 2.03 µg/mL in assay [6]. For the same molecule, the neutralization IC50 in assay [7] is above 15 µg/mL; in assay [8], above 15 µg/mL; in assay [9], 3.44 µg/mL; in [10], above 15 µg/mL; in assay [17] it was above 15 µg/mL; in assay [11] it was 5.23 µg/mL. Besides, the neutralization IC50 in [12] was 1.23 µg/mL; in assay [13] it was 10.9 µg/mL; in assay [14] it was 6.55 µg/mL; in assay [15], above 15 µg/mL.

B7: γ44κ61 (antibody, V domains shown)
VH: QIHLVQSGTEVKKPGSSVTVSCKAYEVNTFGLYAVNWVRQAPGQSLEYIGQIWRWKSSASHHFRGRVLISAVDLTGSSPPISSLEIKNVTSDDTAVYFCTTTSTHDKWSGLHHDGVMAFSSWGQGTLISVSA
VL: DIQMTQSPSTLSASIGDTVRISCRASQSITGNWVAWYHQRPGKAPRLLIYRGAALLGGVPSRFSGSAAGTDFTLTIGNLQAEDFGTFYCQQYDTYPGTFGQGTKVEVKR
With B7, the neutralization IC50 in assay [2], in assay [3], in assay [4], in assay [16], in assay [5] and in assay [6] was above 15 µg/mL throughout. The neutralization IC50 in [7], in assay [8], in assay [9], in [10], in assay [17] and in assay [11] was above 15 µg/mL in each case. Also, the neutralization IC50 in assay [12], in [13], in assay [14] and in assay [15] was above 15 µg/mL in each case.
